In the RNAGym collection of RNA variant scans (doi:10.7554/elife.90254):

B1: LINE1-mini (parent)
chain: GGCAGAGCUCAACACAGCGUGGCAAAGUGGCUGUGGCUAGACUGCC

Variants of: B1
Assay: self-cleavage, relative activity (ratio to wild type); higher = more cleavage; in vitro, sequencing; the parent is a self-cleaving ribozyme

Variant	self-cleavage
GGCAGAGCUCAACACAGCGUUGCAAAUUGGCUGUGGCUAGACUGCC	0.54
GGCAGAGCUCAACACAGCGUCGCAAAGUGGCUGUGGCUAGACUGCU	0.83
GGCAGAGCUCAACACAGCGUCGCAAAGUGGCUGUGGCUAGACUGCA	1.13
GGCAGAGCUCAACACAGCGUCGCAAAGUGGCUGUGGCUAGACUGCG	0.51
GGCAGAGCUCAACACAGCGUCCCAAAGUGGCUGUGGCUAGACUGCC	0.57
GGCAGAGCUCAACACAGCGUCACAAAGUGGCUGUGGCUAGACUGCC	0.48
GGCAGAGCUCAACACAGCGUCUCAAAGUGGCUGUGGCUAGACUGCC	0.46
GGCAGAGCUCAACACAGCGUCGCAAAGUGGCUGUGGCUAAACUGCC	0.04
GGCAGAGCUCAACACAGCGUCGCAAAGUGGCUGUGGCUACACUGCC	0.07
GGCAGAGCUCAACACAGCGUCGCAAAGUGGCUGUGGCUAUACUGCC	0.15
GGCAGAGCUCAACACAGCGUUGCAAAGUGGCUAUGGCUAGACUGCC	0.26
GGCAGAGCUCAACACAGCGUUGCAAAGUGGCUCUGGCUAGACUGCC	0.08
GGCAGAGCUCAACACAGCGUUGCAAAGUGGCUUUGGCUAGACUGCC	0.17
GGCAGAGCUCAACACAGCGUCGCAAAGUGGCUGUGGCUAGUCUGCC	0.5
GGCAGAGCUCAACACAGCGUCGCAAAGUGGCUGUGGCUAGGCUGCC	0.32
GGCAGAGCUCAACACAGCGUCGCAAAGUGGCGGUGGCUAGACUGCC	0.23
GGCAGAGCUCAACACAGCGUCGCAAAGUGGCAGUGGCUAGACUGCC	0.13
GGCAGAGCUCAACACAGCGUCGCAAAGUGGCCGUGGCUAGACUGCC	1.82
GGCAGAGCUCAACACAGCGUUGCAACGUGGCUGUGGCUAGACUGCC	1.29

Variant	self-cleavage
GGCAGAGCUCAACACAGCGUUGCAAGGUGGCUGUGGCUAGACUGCC	1.29
GGCAGAGCUCAACACAGCGUUGCAAUGUGGCUGUGGCUAGACUGCC	1.93
GGCAGAGCUCAACACAGCGUUGCAAAGUGGCUGUAGCUAGACUGCC	0.16
GGCAGAGCUCAACACAGCGUUGCAAAGUGGCUGUCGCUAGACUGCC	0.13
GGCAGAGCUCAACACAGCGUCGCAAAGUGCCUGUGGCUAGACUGCC	1.62
GGCAGAGCUCAACACAGCGUCGCAAAGUGUCUGUGGCUAGACUGCC	1.1
GGCAGAGCUCAACACAGCGUCGCAAAGUGACUGUGGCUAGACUGCC	1.86
GGCAGAGCUCAACACAGCGUUGCAAAGUGGCUGUGGCUAGGCUGCC	0.28
GGCAGAGCUCAACACAGCGUUGCAAAGUGGCUGUGGCUAGUCUGCC	0.9
GGCAGAGCUCAACACAGCGUUGCAAAGUGGCUGUGGCUAGCCUGCC	0.06
GGCAGAGCUCAACACAGCGUUGCAAAGUCGCUGUGGCUAGACUGCC	0.4
GGCAGAGCUCAACACAGCGUUGCAAAGUUGCUGUGGCUAGACUGCC	0.55
GGCAGAGCUCAACACAGCGUUGCAAAGUAGCUGUGGCUAGACUGCC	0.63
GGCAGAGCUCAACACAGCGUCGCAAAGUGGCUGUGGCUAGACGGCC	0.02
GGCAGAGCUCAACACAGCGUCGCAAAGUGGCUGUGGCUAGACAGCC	0.07
GGCAGAGCUCAACACAGCGUCGCAAAGUGGCUGUGGCUAGACCGCC	0.06
GGCAGAGCUCAACACAGCGUCGCAAAGUGGCUGUUGCUAGACUGCC	0.16
GGCAGAGCUCAACACAGCGUCGCAAAGUGGCUGUCGCUAGACUGCC	0.08
GGCAGAGCUCAACACAGCGUCGCAAAGUGGCUGUAGCUAGACUGCC	0.16

Variant	self-cleavage
GGCAGAGCUCAACACAGCGUUGCAAAGUGGUUGUGGCUAGACUGCC	0.3
GGCAGAGCUCAACACAGCGUUGCAAAGUGGAUGUGGCUAGACUGCC	0.19
GGCAGAGCUCAACACAGCGUUGCAAAGUGGGUGUGGCUAGACUGCC	0.08
GGCAGAGCUCAACACAGCGUUGCAAAGUGCCUGUGGCUAGACUGCC	2.18
GGCAGAGCUCAACACAGCGUUGCAAAGUGUCUGUGGCUAGACUGCC	1
GGCAGAGCUCAACACAGCGUUGCAAAGUGACUGUGGCUAGACUGCC	1.81
GGCAGAGCUCAACACAGCGUCGCAAAGUGGCUGUGUCUAGACUGCC	0.03
GGCAGAGCUCAACACAGCGUCGCAAAGUGGCUGUGACUAGACUGCC	0.1
GGCAGAGCUCAACACAGCGUCGCAAAGUGGCUGUGCCUAGACUGCC	0.03
GGCAGAGCUCAACACAGCGUUGCAAAGUGGCUGUGGCUAGACUGAC	0.68
GGCAGAGCUCAACACAGCGUUGCAAAGUGGCUGUGGCUAGACUGUC	1.62
GGCAGAGCUCAACACAGCGUUGCAAAGUGGCUGUGGCUAGACUGGC	0.18
GGCAGAGCUCAACACAGCGUUGCCAAGUGGCUGUGGCUAGACUGCC	0.51
GGCAGAGCUCAACACAGCGUUGCGAAGUGGCUGUGGCUAGACUGCC	1.37
GGCAGAGCUCAACACAGCGUUGCUAAGUGGCUGUGGCUAGACUGCC	1.01
GGCAGAGCUCAACACAGCGUUGCAAAGUGGCUGUGGUUAGACUGCC	0.06
GGCAGAGCUCAACACAGCGUUGCAAAGUGGCUGUGGAUAGACUGCC	0.09
GGCAGAGCUCAACACAGCGUUGCAAAGUGGCUGUGGGUAGACUGCC	0.04
